From the supplement of paper PMC10567573

B1: FAM50A (parent)
chain: HIFPASRWEPYDPEKKWDKYTIR
B2: SASS6 (parent)
chain: QKELQDVGQSLRIKEQEVCKLQEQ

Variants of: B1
Assay: protein stability index of a GFP-peptide fusion (GPS, HEK-293T) (PSI 1-6); higher = more stable
Settings: c terminus: native
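Note: lentivirally expressed fusions sorted by FACS into six bins by GFP to DsRed ratio, PSI derived from sequencing read proportions per bin multiplied by bin number.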

Protein stability index, by site and new letter:
H1: M 1.22 | K 1.08 | N 2.77 | V 1.45 | I 1.58 | G 3.23 | R 2.34
W17: L 2.37 | V 2.62 | K 2.57 | Y 2.29
W8: T 4.03 | Q 4.11 | H 3.46 | N 3.88 | K 2.96 | V 3.62
Y20: A 1.86 | D 3.29 | M 2.2 | K 2.6
K16: G 1.77 | V 1.97 | C 1.96 | A 1.76
S6: M 2.48 | P 4.97 | A 2.66 | W 2 | E 3.04 | Q 3.79
D18: S 1.45 | I 2.48 | E 3.2 | V 2.17 | Y 2.39 | F 1.55 | G 2.28
P10: D 2.23 | F 2.04 | G 2.45 | Q 2.12
P4: W 1.64 | S 1.97 | M 1.59
R23: T 1.87 | A 3.17 | D 2.58 | S 2.1 | K 2.4
T21: Y 2.71 | L 2.32
E9: R 2.43 | F 2.42 | T 1.87 | G 1.72 | V 2.17 | D 1.85
I2: G 3.14 | M 2.35 | C 2.74 | T 2.38 | Y 2.36
F3: K 2.47 | D 3.92 | C 2.54 | V 2.31 | S 2.79
P13: H 2.19 | F 2.8 | C 1.48
D12: H 2.98 | W 1.8
I22: Y 2.98 | C 2.15 | N 3.07 | E 2.25 | R 1.59 | L 2.25
E14: W 1.65 | N 2.42 | A 2.66 | H 1.76
A5: I 2.18 | M 1.54
K15: Y 2.12 | D 2.05 | H 1.45 | A 2.23 | V 2.1
R7: A 2.34 | P 2.01 | K 2.1 | D 3.29 | Q 2.47 | E 3.47
K19: L 2.04 | Y 1.35 | N 2.52
Y11: P 2.71 | K 3.01 | R 4.26 | N 2.67 | M 2.65

Variants of: B2
Assay: as above
Settings: c terminus: a fixed tail appended

Protein stability index, by site and new letter:
Q24: D 5.04 | S 4.43 | I 4.7 | E 5.77 | T 5.35 | V 4.92 | H 4.95 | L 5.16 | F 4.44 | P 5.58 | K 5.27 | M 5.05 | C 5 | G 5.12 | N 5.39 | W 4.84 | Y 4.57 | A 5.21
E23: Q 4.71 | F 4.52 | G 5.58 | M 4.24 | V 4.51 | C 4.29 | H 5.02 | P 4.49 | N 4.5 | S 4.82 | L 4.69 | Y 4.12 | T 4.99 | R 4.76 | D 5.27 | I 4.4 | K 4.89
L21: M 5.03 | Q 5.42 | H 5.57 | S 5.27 | G 5.9 | Y 5.38 | N 5.68 | I 5.43 | K 5.81 | W 4.92 | T 5.68 | P 5.4
Q22: F 4.5 | I 4.69 | P 5.27 | M 4.88 | R 5.07 | L 4.44 | E 5.4 | C 4.34 | V 4.4 | N 5.11 | T 5.06 | K 5.25 | Y 4.67 | H 4.79 | D 5.58 | W 4.83
